± gives the uncertainty stated by the source.
Experiment: amyloid nucleation score (Sup35N fusion, yeast selection) (log enrichment); library NNK1; higher = more nucleation; inactive = no reads after selection
Outline: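 Plasmid inserts were Illumina-sequenced at input and output from psi-negative yeast expressing Sup35N fused to peptides of 20 random codons. The yeast were induced with 100 μM copper sulfate for 24 hours and grown 7 days at 30°C on medium lacking adenine and uracil, and sequences with under 100 input reads were excluded. Nucleation score is the DiMSum log enrichment of output over input reads, centred on the mode score of non-aggregating sequences.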

Point of comparison: FMIVKFLIL, amyloid nucleation score 1.5 ± 0.26. Against it:
- FCNSALLSQLGFLKTWDQRG — lower, -0.604 ± 1.6
- FCPNHHNCVISCEWHSGALR — higher, 2.51 ± 0.13
- FCPTVETYNVW — higher, 2.12 ± 0.14
- FCRKSQEKYWVPFK — lower, -0.667 ± 1
- FCSSSLFHKVTLG — lower, -0.043 ± 0.77
- FCVRICNCRIWCLCSLTKSL — lower, -0.624 ± 0.46
- FDAAIVLCSDVSIKGCLSRN — within error, 1.27 ± 0.27
- FDFYSLRRGGVNYRSLLQVI — lower, 0.25 ± 0.84
- FDGFNFISWIVR — higher, 2.06 ± 0.11
- FDRFCFIIIVQYSFHG — within error, 1.35 ± 0.76
- FDSLVSREFVP — lower, -0.887 ± 1.5
- FEFDNR — lower, -0.003 ± 0.53
- FELICRW — within error, 0.516 ± 1.1
- FEVSGMCRVQVVTYNFFSSS — higher, 6.99 ± 0.088
- FEWRFPHQR — lower, -0.025 ± 0.64
- FFCSNDLSFVAELILINRQV — within error, 0.87 ± 0.58
- FFDSRFLFDSRTGSMYA — lower, -1.71 ± 1.5
- FFDYGDAWSFHRMNNWDVLY — lower, -0.935 ± 0.62
- FFFKAFDLATTSLGRYNMCN — lower, -0.66 ± 0.52
- FFGGNSAVVVIRWMSRSGHW — lower, 0.489 ± 0.64
- FFILW — lower, -0.75 ± 1.2
- FFISALLNSSFGEFTFGSVK — lower, -0.432 ± 0.65
- FFKNLCSRGCLCSYGMVQTV — lower, 0.396 ± 0.58
- FFLMIQSVT — within error, 0.84 ± 0.47
- FFMLFRCGF — lower, 0.333 ± 0.87
- FFRVLFFTFLAWYVELKWQL — lower, -0.201 ± 0.78
- FFVKMHIFSFFQVATVVYMH — lower, 0.043 ± 0.33
- FFVVMVIDNKHPQQENSRIR — within error, 1.74 ± 0.34
- FFWYPTFISFDRKFEVTIGP — higher, 5.07 ± 0.053
- FGAFYVGDHG — lower, -1.7 ± 1.3
- FGCTKANT — lower, -0.657 ± 1.1
- FGHGV — lower, -0.626 ± 1.6
- FGICKYFNRFVMNIRSVDES — lower, -0.618 ± 0.52
- FGPGCCIFL — higher, 7.481 ± 0.054
- FGQSQPCDVTRENFCKEACN — lower, -0.028 ± 0.9
- FGSSVSAVNFRVV — lower, -0.448 ± 0.4
- FGWRISILLVPHRLFRGLPQ — lower, -0.85 ± 1.9
- FGYRMAYGSHVFVHSYRTEP — higher, 2.42 ± 0.24
- FGYVDPRQCDISEHLPLSTV — lower, -0.345 ± 0.61
- FHGSGESVNTDTMLTLYISV — lower, -0.157 ± 0.54
- FHHMVLE — lower, -0.783 ± 0.54
- FHYWFIIKVPTWMVYRDLTA — lower, -0.203 ± 0.34
- FIAQLYVNEMFDSLTLRRGD — lower, 0.415 ± 0.33
- FICRFDVHWHSGMFSLYPWC — lower, 0.682 ± 0.47
- FIDRIYSIVYGVGGCMMSLI — lower, 0.008 ± 0.47
- FIEHQTRSFDKILSYAWLEA — lower, 0.379 ± 0.61
- FIISSTQPRCRAPLTS — lower, -0.165 ± 0.56
- FIIWHELWKVMWSSTALSLD — within error, 0.769 ± 0.69
- FINDYMIQYSLHLQVLMST — higher, 3.95 ± 0.074
- FIRGLCNVLGCSR — within error, 1.04 ± 0.24
- FISRCSFAGSCVK — lower, -1.27 ± 1.7
- FIYLVLLSR — within error, 1.32 ± 0.23
- FKHDYKFEGVCRVNDFLMGF — lower, -0.115 ± 0.9
- FKSILRYPADRKMS — within error, 0.997 ± 0.76
- FKVIYARFVTIWVAVRRAFL — lower, 0.051 ± 0.69
- FKVVF — lower, -0.909 ± 1.9
- FKYALKTSCLLIVQDGGSMR — within error, -0.023 ± 1.4
- FLAIILSWPFSAQFGFNVEG — lower, 0.533 ± 0.62
- FLARNFCIC — higher, 5.67 ± 0.064
- FLCHWLYFRNSYGGYVSRW — within error, 1.92 ± 0.4
- FLCLLMFPIRHRL — lower, 0.004 ± 0.33
- FLDASVDKSLSYPGHIVAFR — lower, -1.57 ± 1.7
- FLEFAYVVFKILEKNGGLSY — lower, -1.56 ± 0.86
- FLFFRS — higher, 4.62 ± 0.086
- FLGLNQLNFWFGAS — higher, 7.845 ± 0.045
- FLGTI — within error, -1.08 ± 2.7
- FLHFVYRI — lower, -0.578 ± 1
- FLLLCRSFFSARTILRCTMG — lower, 0.072 ± 0.81
- FLMFQGSYIYRNTGFYSSSD — lower, -0.176 ± 0.95
- FLNLGSSDQSHYSCTKEWSH — lower, -0.157 ± 0.51
- FLNNTGAQSKLFLDVSVRQG — lower, -0.065 ± 0.86
- FLQFF — lower, -0.656 ± 0.47
- FLQNMSVILTIMNDIKIMED — higher, 6.161 ± 0.047
- FLTAAWTSGHDGREFSPRPF — higher, 2.61 ± 0.16
- FLTIYGLNPSDYVGKVRQRD — lower, 0.236 ± 0.34
- FMHAGIYL — lower, 0.043 ± 1
- FMKSKAAAYS — lower, -0.247 ± 0.63
- FMLVMFYWIYFNYSNVFRD — lower, -0.669 ± 0.78
- FMLYTTVTERAWRHLN — lower, 0.395 ± 0.36
- FMRMFVIIKHHVEVRRPRFI — lower, 0.413 ± 0.7
- FMTSDPYVLIHQALVRINEY — higher, 4.58 ± 0.095

In the case of FFVGLPYTNSYHIPHVF, the amyloid nucleation score is reported as “inactive”.
For FGLTCRLHKAVFRFYNKRTS, the amyloid nucleation score was “inactive”.
For FKEDITFADGISDWSCQYTM, the amyloid nucleation score was “inactive”.
With FLPRSYCVFSWFHLSVSTAR the amyloid nucleation score was “inactive”.
In the case of FMRPVYHYMPSMTSYVSLDT, the amyloid nucleation score is reported as “inactive”.

From the supplement of paper PMC12042874
